Assay results as given in patent US20240425837A1 (Novo Nordisk, published 2024).
No end group written: not given here.

Assays:
Assay in all cases: ELISA, biotinylated 12-mer peptide on streptavidin, 2 ug/mL FLAG-tagged VHH, anti-FLAG-HRP
[1] = biological target: T1, FX activation peptide 12-mer … (SEQ ID NO:727) (human)
T1 sequence (peptide, C-terminally conjugated to biotin): LLDFNQTQPERG

[2] = biological target: T2, FX activation peptide 12-mer PDSITWKPYDAA (SEQ ID NO:705) (human)
T2 peptide: PDSITWKPYDAA-biotin
Protocol: (§1) To determine whether the binding epitope of the anti-FX VHH polypeptide designated “cmpd #1” are located inside the activation peptide (AP) of human FX (SEQ ID NO:2), an ELISA assay was setup. 41 unique 12-mer peptide fragments spanning the 52 residues of the activation peptide with one amino acid spacing were immobilized in microtiter plate wells followed by incubation with the VHH polypeptide to be tested, and detection of bound ligand was performed by addition of a secondary HRP-labelled antibody.
(§2) The peptides were C-terminally conjugated to biotin and 50 μL of 1 μg/mL peptide solution was used for immobilization in discrete wells of the microtiter plate which was pre-coated with 1 μg/mL streptavidin. Each well was washed with washing buffer (10 mM Tris, 150 mM NaCl, 2.5 mM CaCl₂, 0.05% Tween 20, pH 8.60) followed by addition of 50 μL of 2 μg/mL FLAG-tagged anti-FX VHH polypeptide or IgG antibody to be tested. After 1 hour non-bound VHH polypeptide was washed off using washing buffer.
(§3) Bound anti-FX activation peptide ligand was detected by first binding a HRP-labelled secondary antibody (for FLAG-tagged VHH polypeptide: Anti-FLAG mAb M2-Peroxidase (HRP) (Sigma Aldrich, US) for 1 hour, and then adding 100 μL TMB-1 ELISA substrate (Kem-En-Tec Diagnostics, Denmark).

[3] = biological target: T3, FX activation peptide 12-mer KPYDAADLDPTE (SEQ ID NO:711) (human)
T3 peptide: KPYDAADLDPTE-biotin
Protocol: as §1, §2, §3

[4] = biological target: T4, FX activation peptide 12-mer DPTENPFDLLDF (SEQ ID NO:719) (human)
T4 peptide: DPTENPFDLLDF-biotin
Protocol: as §1, §2, §3

[5] = biological target: T5, FX activation peptide 12-mer TQPERGDNNLTR (SEQ ID NO:733) (human)
T5 peptide: TQPERGDNNLTR-biotin
Protocol: as §1, §2, §3

B1: Cmpd #1 (monovalent anti-FX VHH polypeptide, VHH-1.1) (VHH)
VHH: EVQLVESGGGLVQPGGSLRLSCAASGSIGAFDAMGWYRQAPGKQRELVAGIMVSRGNTNYTDSVKGRFTISRDNAKNTVYLQMNSLKPEDTAVYYCKAVKRPGPGYLEVWGQGTLVTVSS
notes: no protractor; FLAG-tagged in the peptide ELISA
ELISA signal normalized relative to the background signal (fold of background) [1]: 1.88 | ELISA signal normalized relative to the background signal [2]: 1.05 fold of background | ELISA signal normalized relative to the background signal [3]: 0.8 fold of background | ELISA signal normalized relative to the background signal [4]: 4.16 fold of background | ELISA signal normalized relative to the background signal [5]: 1.05 fold of background
